The target of one data set is PDGF-BB (Homo sapiens, UniProt P01127 P01127:82-190). Kind of data set: competition; PDGF alpha-receptor PAE cells, 4 C. Conditions: tags: R&D Systems, E. coli; chain copies: B chain dimer; three-way helix junction. As for the experimental part:
The binding of ¹²⁵I-PDGF-AA and ¹²⁵I-PDGF-BB to porcine aortic endothelial (PAE) cells transfected with PDGF α- or β-receptors were performed as described (Heldin et al., (1988) EMBO J. 7:1387-1394). Different concentrations of DNA ligands were added to the cell culture (1.5 cm²) in 0.2 ml of phosphate buffered saline supplemented with 1 mg bovine serum albumin per ml together with ¹²⁵I-PDGF-AA (2 ng, 100,000 cpm) or ¹²⁵I-PDGF-BB (2 ng, 100,000 cpm). After incubation at 4° C. for 90 min, the cell cultures were washed and cell associated radioactivity determined in a γ-counter (Heldin et al., (1988) EMBO J. 7:1387-1394).
In order to determine whether the DNA ligands to PDGF were able to inhibit the effects of PDGF isoforms on cultured cells, the effects on binding of ¹²⁵I-labeled PDGF isoforms to PDGF α- and β-receptors stably expressed in porcine aortic endothelial (PAE) cells by transfection was determined.

For data set [1], the target named is T1, TGFβ1 (Homo sapiens, UniProt P01137 P01137:279-390). The data set is described as follows: filter; cell IC50 103 and 112 nM; fully effective only against TGFβ1, not TGFβ2 or TGFβ3. Conditions: tags: Genentech; biotinylated version used in bead assay; chain copies: 2.
T1 sequence (P01137 279-390, one chain of several): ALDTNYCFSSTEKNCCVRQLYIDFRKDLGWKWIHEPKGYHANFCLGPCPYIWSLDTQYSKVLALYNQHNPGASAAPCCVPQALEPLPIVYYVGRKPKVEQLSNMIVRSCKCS
Data set [2] addresses T1, TGFβ1. Kind of data set: filter; C to G at position 53; not inhibitory. Conditions: tags: Genentech; biotinylated version used in bead assay; chain copies: 2.
Data set [3] deals with T1, TGFβ1. The data set is described as follows: filter; 37 C, KRH buffer. The following applies: tags: Genentech; biotinylated version used in bead assay; chain copies: 2.
Data set [4] deals with T2, KGF (hKGF) (Homo sapiens, UniProt P21781 P21781:32-194).
T2 sequence: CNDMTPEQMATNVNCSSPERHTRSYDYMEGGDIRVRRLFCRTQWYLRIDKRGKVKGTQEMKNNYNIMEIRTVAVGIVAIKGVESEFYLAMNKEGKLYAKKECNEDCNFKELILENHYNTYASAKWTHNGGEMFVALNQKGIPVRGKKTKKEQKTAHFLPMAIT
The data set is described as follows: filter; similar to random RNA. Conditions: tags: Upstate Biotechnology; label: 32P.

Data set [5] addresses T1, TGFβ1. Kind of data set: filter; cell IC50 119 nM. The following applies: tags: Genentech; biotinylated version used in bead assay; chain copies: 2.
Data set [6] addresses T1, TGFβ1. The data set is described as follows: cell_activity. The following applies: tags: Genentech or R&D Systems; chain copies: 2. Here is the method:
MLEC-Pail/luc cells were plated at 3.2×10⁴ cells per well in a 96 well Falcon plate, in 100 μl of DME+10% fetal bovine serum overnight. Media was made from autoclaved water. The cells were washed three times ([…]) in serum free DME plus Solution A (1:1). Solution A is 30 mM Hepes pH 7.6, 10 mM glucose, 3.0 mM KCl, 131 mM NaCl, 1.0 mM disodium phosphate. Samples (100 μl) were added in DME containing 20 mM Hepes pH 7.5, and 0.1% BSA (Fluka, radioimmunoassay grade). All samples were in triplicate. After six hours at 37° C. in a 5% CO₂ incubator the media was removed and cells were washed three times (100 μl each) in cold PBS. Lysis buffer (75 μl) (Analytical Luminescence Laboratory) was added and the plates incubated on ice for 20 min. The plates were sealed and frozen at −80° C. until assayed. Samples (25 μl) were assayed for luciferase activity with the Enhanced Luciferase Assay Kit from Analytical Luminescence Laboratory (San Diego, Calif., USA) according to the manufacturer's instructions using the Berthold Microlumat LB96P luminometer.
Ligands tested for inhibition of TGFβ1 activity were tested at a minimum of five concentrations. The ligands were serially diluted in DME, 20 mM Hepes pH 7.5, 0.1% Fluka BSA in polypropylene tubes and an equal volume of media containing 12 pM TGFβ1 was added to each tube, vortexed and transferred to the cells without further incubation.

For data set [7], the target named is T1, TGFβ1. The data set is described as follows: filter; boundary experiment, each terminus separately. Conditions: tags: Genentech or R&D Systems; chain copies: 2.
The target of data set [8] is T2, KGF (hKGF). Kind of data set: filter; high +, low +. Conditions: tags: Upstate Biotechnology. Here is the method: (§1) In an effort to identify shorter KGF ligands that retained binding, the binding activity of various deletions of the shortest truncate of ligand 14F, namely 14F3′T were tested. Deletions were tested in all the structural elements of the proposed pseudoknot structure. RNA transcripts containing 2′F pyrimidines and 2′OH purines were obtained by in vitro transcription using synthetic DNA templates. The activity of each ligand is shown by scoring for both the high (H) and low (L) affinity component of the 14F3′T binding curve with +(active) or −(not active). Truncates T35 and T36 represent two complementary halves of 14F3′T molecule and were additionally tested as an equimolar mixture. The structural elements of the proposed pseudoknot structure are separated by (1) and are indicated by symbols S1 (stem 1), S2 (stem 2), L1 (loop 1) and L3 (loop 3). The proposed pseudoknot structure for 14F3′T is a non-H-type pseudoknot and lacks L2 (loop 2). The complementary sequences forming S1 (S1 and S1′) and S2 (S2 and S2′) are marked by single and double underlines respectfully. In the tabulated sequences, deleted bases were replaced with periods (.). […] Deletions in loop 3 (L3), however, were tolerated as long as one copy of the RRYY box remained intact. The shortest ligand that retained activity is T22 which is a 43-mer. In trying to obtain shorter ligands by truncating L3 further a mutant version of T22 (designated T22mu) was used where the last GC base pair of S1 was eliminated by a G to U mutation at position 6. The reasoning for this mutation was to enhance the flexibility of the double stranded region of this ligand by allowing an unpaired base between S1 and S2.

Data set [9] has as its target T1, TGFβ1. The data set is described as follows: filter; 2'-OH RNA. Conditions: tags: Genentech; biotinylated version used in bead assay; chain copies: 2.
Data set [10] has as its target T1, TGFβ1. Kind of data set: filter; cell IC50 298 and 201 nM. Conditions: tags: Genentech; biotinylated version used in bead assay; chain copies: 2.
The target of data set [11] is T1, TGFβ1. The data set is described as follows: filter; cell IC50 22 nM. Conditions: tags: Genentech; biotinylated version used in bead assay; chain copies: 2.
Data set [12] concerns the target T2, KGF (hKGF). The data set is described as follows: filter; biphasic, high affinity 21%; Kd2 2.10 nM. Conditions: tags: Upstate Biotechnology; label: 32P.
The target in data set [13] is T1, TGFβ1. Kind of data set: filter; not inhibitory; no binding with 2'-NH2 pyrimidines. The following applies: tags: Genentech; biotinylated version used in bead assay; chain copies: 2.
The target of data set [14] is T2, KGF (hKGF). Kind of data set: filter; 43-mer, shortest active truncate; retains high and low affinity components. The following applies: tags: Upstate Biotechnology; pseudoknot (predicted). As for the experimental part: as §1, with “In trying to obtain shorter ligands by truncating L3 further a mutant version of T22 (designated T22mu) was used where the last GC base pair of S1 was eliminated by a G to U mutation at position 6. The reasoning for this mutation was to enhance the flexibility of the double stranded region of this ligand by allowing an unpaired base between S1 and S2.” left out

The term IC50 denotes the concentration that gives 50% inhibition. High values mean weaker potency in that assay, low ones greater potency in that assay. The term Kd denotes the constant that tells how readily two partners part at equilibrium. A low value points to higher affinity.

PDGF-BB, sequence (P01127 82-190, one chain of several): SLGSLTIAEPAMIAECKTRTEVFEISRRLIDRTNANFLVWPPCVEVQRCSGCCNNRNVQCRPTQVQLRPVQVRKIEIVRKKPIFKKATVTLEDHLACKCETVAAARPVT

The molecule TACTCAGGGCACTGCAAGCAATTGTGGTCCCAATGGGCTGAGTAT (ssDNA, 3'-3' idT) [41t] came in with an IC50 with PDGF-BB of approximately 1 nM.

B1: lib2-6-1 (ssRNA)
RNA: GGGGGAGAACGCGGAUCCUGUCUCCACCGCCGAUACUGGGGUUCCUGGGGCCCCUCCAUGCAGGAGGGGGGUGGUUCGGAGAAAGCUUCGCUCUAGAUCUCCCUUUAGUGAGGGUUA
modifications: 2'-NH2 U, 2'-F C
Regarding B1, binding with TGFβ1 [1] was put at a Kd of 14.3 nM.

B2: lib8-23 (ssRNA)
RNA: GGGGGAGAACGCGGAUCCUGUCUCCACCGCCGAUACUGGGGUUCCUGGGGCCGCUCCAUGCAGGAGGGGGGUGGUUCGGAGAAAGCUUCGCUCUAGAUCUCCCUUUAGUGAGGGUUA
modifications: 2'-NH2 U, 2'-F C
For the molecule B2, in the data set with TGFβ1 [2], the Kd is 6.6 nM.

B3: lib3-3 (ssRNA)
RNA: GGGGGAGAACGCGGAUCCGAGCAACCCCAGGCGCAUAGCUUCCGAGUAGACAGGAGGGAGGGGUGGAUGUGGCGUCUACUCGGUGUCGUGAAGCUUCGCUCUAGAUCUCCCUUUAGUGAGGGUUA
modifications: 2'-NH2 pyrimidines
In the case of B3, the Kd with TGFβ1 [3] came out at 1.7 nM.

B4: 57N (ssRNA)
RNA: GGGAGGACGAUGCGGUCGUGGGGUGGGUGGGGGCAGCGUUGGAAUAAGUAACUGGUAACGGCUGGCCAGACGACUCGCCCGA
modifications: 2'-NH2 pyrimidines
B4 came in with a Kd with KGF (hKGF) [4] of 35.8 nM.

B5: lib3-44 (ssRNA)
RNA: GGGGGAGAACGCGGAUCCUGAGAAGGACGUCGGGGUGAGGUGCAGCAGAAAGGGCCGGCACCACAUGACGUAAAAGCUUCGCUCUAGAUCUCCCUUUAGUGAGGGUUA
modifications: 2'-NH2 pyrimidines
Molecule B5 displayed a Kd with TGFβ1 [5] of 1.3 nM. Moreover, 119 nM corresponded to half-maximal inhibition with TGFβ1 [6] (IC50).
On to GCUUCCGAGUAGACAGGAGGGAGGGGUGGAUGUGGCGUCUAC (ssRNA, modified pyrimidines) [lib3-13 boundaries (38-79)], for which the binding result with TGFβ1 [7] is “binds”.
GGGAGGACGAUGCGGUGGUCUCCCCUAAACUUUCUCCAUCGUAUC (ssRNA, 2'-F pyrimidines) [T4]: the binding result with KGF (hKGF) [8] was “binds”.

B6: 65N (ssRNA)
RNA: GGGAGGACGAUGCGGUAACGUGGAAUAGGGUUAAACAGCUGGAAAUAACGUAGGUGGCCAGACGACUCGCCCGA
modifications: 2'-NH2 pyrimidines
On to B6, for which, in the data set with KGF (hKGF) [4], binding was put at a Kd of 26.6 nM.

B7: lib4-12 boundaries (ssRNA)
RNA: GGAGAACGCGGAUCCUGAGAAGGACGUCGGGGUCAACGGGGUGAGGUGCAGCAGAAAGGGCCGGCACCA
modifications: modified pyrimidines
B7: the binding result in the data set with TGFβ1 [7] is “binds”.
For the molecule GGGAGGACGAUGCGGUGGUCUCCCAAUUCUAUUCUCCAUCGUAUC (ssRNA, 2'-F pyrimidines) [T5], the binding result with KGF (hKGF) [8] is given as “binds”.

B8: lib1-20-12 (ssRNA)
RNA: GGGGGAGAACGCGGAUCCGGUCACCCGGGCAUAUAACAAUGCCGACACUGGGGUACCUGGGACGGGUGGGACUGGACGGAAGAAGCUUCGCUCUAGAUCUCCCUUUAGUGAGGGUUA
In the data set with TGFβ1 [9], B8 yielded an equilibrium dissociation constant (Kd) of 3.1 nM.

B9: lib2-6-1-81 (ssRNA)
RNA: GGGGGAGAACGCGGAUCCUGUCUCCACCGCCGAUACUGGGGUUCCUGGGGCCCCUCCAUGCAGGAGGGGGGUGGUUCGGAG
modifications: 2'-NH2 U, 2'-F C
In the data set with TGFβ1 [10], B9 had a dissociation constant (Kd) of 10.7 nM.
With GGGAGGACGAUGCGGUGGUCUCCCAAUUCUAUCUCCAUCGUAUC (ssRNA, 2'-F pyrimidines) [T18], the binding result with KGF (hKGF) [8] was “binds”.
On the same count and under the same terms, the entry for GGGAGGACGAUGCGGUGGUCUCCCAAUUCUUUCUCCAUCGUAUC (ssRNA, 2'-F pyrimidines) [T21] is “binds”.

B10: lib3-42 (ssRNA)
RNA: GGGGGAGAACGCGGAUCCGGUGGGAAAGUCGGAUUAUGUGUGUAGAUUUGUGUGCGAAAGCUUCGCUCUAGAUCUCCCUUUAGUGAGGGUUA
modifications: 2'-NH2 pyrimidines
In the case of B10, the IC50 with TGFβ1 [6] turned out to be 22 nM. The Kd with TGFβ1 [11] stood at 0.6 nM.

B11: 50F (ssRNA)
RNA: GGGAGGACGAUGCGGUGAUCAAUCGGCGCUUUACUCUUGCGCUCACCGUGCCCCAGACGACUCGCCCGA
modifications: 2'-F pyrimidines
Take B11: in the data set with KGF (hKGF) [12], the Kd was found to be 0.12 nM. This counts as sub-nanomolar.

B12: lib1-20-3 (ssRNA)
RNA: GGGGGAGAACGCGGAUCCUGCUAGACCGAGGAUGCAAAGGGACAUGCAUUAGGGAAACCUAUGUAUAAGAACGCGGUCGCAGAAGCUUCGCUCUAGAUCUCCCUUUAGUGAGGGUUA
modifications: 2'-F pyrimidines
On to B12, for which the Kd with TGFβ1 [13] was determined as 30 nM.

B13: 59N (ssRNA)
RNA: GGGAGGACGAUGCGGGGUGGGUGGUUACCUGUAAUUAUAUUGAUUCUGGCUUUAGCAGACGACUCGCCCGA
modifications: 2'-NH2 pyrimidines
Molecule B13 registered a Kd in the data set with KGF (hKGF) [4] of 22 nM.
Turning to GGGAGGACGAUGCGGUGGUCUCCCAAUUCUUCUCCAUCGUAUC (ssRNA, 2'-F pyrimidines) [T22], in the data set with KGF (hKGF) [14], the binding result is reported as “binds”.
As to TGGGAGGGCGCGTTCTTCGTGGTTACTTTTAGTCCCGT (ssDNA, 3'-3' idT) [20t], in the data set with PDGF-BB, the IC50 was approximately 1 nM.
